Assay results from patent publication US20140087995A1 (published 2014).
Numbered stars: 1 amine (or outer) side, 2 acyl side, 3 side chain; on linkers, the order of the positions; unused ones are H or OH. Bridge positions count the residues as written; N and C are the ends. Side chains are listed from the residue outwards. Ends that are not written are not given here. * marks the point of attachment. C18 diacid = O=C(O)CCCCCCCCCCCCCCCCC(=O)*; γGlu = O=C(O)[C@H](CCC(=O)[*:2])N[*:1]; C14 diacid = O=C(O)CCCCCCCCCCCCC(=O)*

T1: rat calcitonin receptor (rat, UniProt P32214 25-516)
T1 construct: whole, on cells; Used as membranes prepared from the transfected cells (Assay VIII); also called rCTR; rat calcitonin (a) receptor
T1 sequence (looked up): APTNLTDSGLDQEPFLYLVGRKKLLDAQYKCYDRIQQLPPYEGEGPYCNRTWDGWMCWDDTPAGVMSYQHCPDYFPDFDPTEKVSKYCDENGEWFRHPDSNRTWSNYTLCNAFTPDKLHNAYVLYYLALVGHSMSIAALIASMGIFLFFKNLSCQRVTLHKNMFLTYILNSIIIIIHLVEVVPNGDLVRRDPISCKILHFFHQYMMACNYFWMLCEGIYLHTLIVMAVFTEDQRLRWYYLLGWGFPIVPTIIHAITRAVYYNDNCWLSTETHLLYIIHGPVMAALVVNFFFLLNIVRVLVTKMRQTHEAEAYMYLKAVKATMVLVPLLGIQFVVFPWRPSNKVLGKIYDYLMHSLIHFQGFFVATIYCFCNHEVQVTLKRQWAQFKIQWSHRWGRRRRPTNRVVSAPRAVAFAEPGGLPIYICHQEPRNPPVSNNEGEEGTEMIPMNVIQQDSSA

T2: rat amylin receptor (rat calcitonin receptor + rat RAMP 3) (rat, UniProt P32214 25-516; Q9JJ73 23-147)
T2 construct: whole, on cells; Used as membranes prepared from the transfected cells (Assay VI); also called rAmylin-R; rat amylin 3(a) receptor
T2 sequence (looked up) 1: T1 sequence (looked up)
T2 sequence (looked up) 2: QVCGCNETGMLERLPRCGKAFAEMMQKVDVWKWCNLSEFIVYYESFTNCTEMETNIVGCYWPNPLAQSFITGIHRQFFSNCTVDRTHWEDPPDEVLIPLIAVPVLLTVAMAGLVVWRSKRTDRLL

T3: human calcitonin receptor (human, UniProt P30988 25-474)
T3 construct: whole, on cells; Used as membranes prepared from the transfected cells (Assay VII); also called hCTR; hCT
T3 sequence (looked up): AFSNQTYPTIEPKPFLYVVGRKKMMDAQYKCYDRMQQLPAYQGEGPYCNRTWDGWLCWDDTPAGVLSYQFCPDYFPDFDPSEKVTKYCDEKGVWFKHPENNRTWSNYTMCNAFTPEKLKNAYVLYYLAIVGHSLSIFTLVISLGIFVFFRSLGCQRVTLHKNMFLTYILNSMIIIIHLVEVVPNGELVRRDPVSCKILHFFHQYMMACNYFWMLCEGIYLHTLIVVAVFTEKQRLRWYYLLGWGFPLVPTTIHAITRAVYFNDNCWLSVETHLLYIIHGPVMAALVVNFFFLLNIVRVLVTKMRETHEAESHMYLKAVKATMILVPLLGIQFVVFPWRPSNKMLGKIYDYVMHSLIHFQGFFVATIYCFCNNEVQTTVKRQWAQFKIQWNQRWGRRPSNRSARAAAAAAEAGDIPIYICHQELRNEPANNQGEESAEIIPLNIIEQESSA

B1: N^ε1-[(4S)-4-carboxy-4-(13-carboxytridecanoylamino)butanoyl]-[Arg17,Pro21,Pro27,His34]-h-amylin (peptide)
peptide: K([γGlu-C14 diacid])CNTATCATQRLANFLRHSSPNFGAIPSSTNVGHNTY-NH2
modifications: disulfide 2-7; N-terminus assumed
SMILES: CC[C@H](C)[C@H](NC(=O)[C@H](C)NC(=O)CNC(=O)[C@H](Cc1ccccc1)NC(=O)[C@H](CC(N)=O)NC(=O)[C@@H]1CCCN1C(=O)[C@H](CO)NC(=O)[C@H](CO)NC(=O)[C@H](Cc1c[nH]cn1)NC(=O)[C@H](CCCNC(=N)N)NC(=O)[C@H](CC(C)C)NC(=O)[C@H](Cc1ccccc1)NC(=O)[C@H](CC(N)=O)NC(=O)[C@H](C)NC(=O)[C@H](CC(C)C)NC(=O)[C@H](CCCNC(=N)N)NC(=O)[C@H](CCC(N)=O)NC(=O)[C@@H](NC(=O)[C@H](C)NC(=O)[C@@H]1CSSC[C@H](NC(=O)[C@@H](N)CCCCNC(=O)CC[C@H](NC(=O)CCCCCCCCCCCCC(=O)O)C(=O)O)C(=O)N[C@@H](CC(N)=O)C(=O)N[C@@H]([C@@H](C)O)C(=O)N[C@@H](C)C(=O)N[C@@H]([C@@H](C)O)C(=O)N1)[C@@H](C)O)C(=O)N1CCC[C@H]1C(=O)N[C@@H](CO)C(=O)N[C@@H](CO)C(=O)N[C@H](C(=O)N[C@@H](CC(N)=O)C(=O)N[C@H](C(=O)NCC(=O)N[C@@H](Cc1c[nH]cn1)C(=O)N[C@@H](CC(N)=O)C(=O)N[C@H](C(=O)N[C@@H](Cc1ccc(O)cc1)C(N)=O)[C@@H](C)O)C(C)C)[C@@H](C)O
notes: not restated for each compound
B2: N^ε1-[(4S)-4-carboxy-4-(17-carboxyheptadecanoylamino)butanoyl]-[Arg17,Pro21,Pro27,His34]-h-amylin (peptide)
peptide: K([γGlu-C18 diacid])CNTATCATQRLANFLRHSSPNFGAIPSSTNVGHNTY-NH2
modifications: disulfide 2-7; N-terminus assumed
SMILES: CC[C@H](C)[C@H](NC(=O)[C@H](C)NC(=O)CNC(=O)[C@H](Cc1ccccc1)NC(=O)[C@H](CC(N)=O)NC(=O)[C@@H]1CCCN1C(=O)[C@H](CO)NC(=O)[C@H](CO)NC(=O)[C@H](Cc1c[nH]cn1)NC(=O)[C@H](CCCNC(=N)N)NC(=O)[C@H](CC(C)C)NC(=O)[C@H](Cc1ccccc1)NC(=O)[C@H](CC(N)=O)NC(=O)[C@H](C)NC(=O)[C@H](CC(C)C)NC(=O)[C@H](CCCNC(=N)N)NC(=O)[C@H](CCC(N)=O)NC(=O)[C@@H](NC(=O)[C@H](C)NC(=O)[C@@H]1CSSC[C@H](NC(=O)[C@@H](N)CCCCNC(=O)CC[C@H](NC(=O)CCCCCCCCCCCCCCCCC(=O)O)C(=O)O)C(=O)N[C@@H](CC(N)=O)C(=O)N[C@@H]([C@@H](C)O)C(=O)N[C@@H](C)C(=O)N[C@@H]([C@@H](C)O)C(=O)N1)[C@@H](C)O)C(=O)N1CCC[C@H]1C(=O)N[C@@H](CO)C(=O)N[C@@H](CO)C(=O)N[C@H](C(=O)N[C@@H](CC(N)=O)C(=O)N[C@H](C(=O)NCC(=O)N[C@@H](Cc1c[nH]cn1)C(=O)N[C@@H](CC(N)=O)C(=O)N[C@H](C(=O)N[C@@H](Cc1ccc(O)cc1)C(N)=O)[C@@H](C)O)C(C)C)[C@@H](C)O
notes: as for B1

Columns and labels:
[1] = target: T1, rat calcitonin receptor; experiment: ratio of IC50 on rat calcitonin receptor (Assay VIII) to IC50 on rat amylin receptor (Assay VI)
[2] = target: T2, rat amylin receptor (rat calcitonin …); experiment: SPA competition binding, displacement of 125I-rat amylin from membranes of BHK tk'ts 13 cells transfected with rat calcitonin receptor + rat RAMP 3 (Assay VI)
[3] = target: T1, rat calcitonin receptor; experiment: SPA competition binding, displacement of 125I-calcitonin from membranes of BHK tk'ts 13 cells transfected with rat calcitonin receptor (Assay VIII)
[4] = target: T3, human calcitonin receptor; experiment: ratio of IC50 on human calcitonin receptor (Assay VII) to IC50 on human amylin receptor (Assay V)
Method: The resulting pellet was resuspended, homogenized and centrifuged (20.000 rpm, 15 min) in a buffer containing 20 mM Na-HEPES and 0.1 mM EDTA (pH 7.4, buffer 2). The resulting pellet was resuspended in buffer 2 and protein concentration was measured (BCA protein Assay, Pierce). The homogenate was kept cold during the whole procedure. The membranes were kept at −80° C. until use. The assay was performed in a 384 well Optiplate (PerkinElmer) in a total volume of 40 ul. Membranes were mixed with SPA beads. Final concentration of membranes 35 ng/μL final and SPA beads was 0.05 mg/well. Test-compounds were dissolved in DMSO and further diluted in assay buffer (50 mM Hepes, pH 7.4, 1 mM CaCl2, 5 mM MgCl₂, 0.1% OA and 0.02% Tween20). […] The final mixture was incubated with shaking at 400 rpm for 120 min at 25° C. prior to centrifugation (1500 rpm, 10 min). Samples were analyzed on TopCounter™ (Packard). The IC₅₀ was calculated using (one site binding competition analysis) GraphPad Prism5 as a measure of receptor affinity.
Membranes were prepared in the following way; the cells were rinsed with PBS and incubated with Versene for approximately 5 min before harvesting. The cells were flushed with PBS and the cell-suspension was centrifuged for 5 min at 1000 rpm. Cells were homogenized (Ultrathurrax) in a buffer containing 20 mM Na-HEPES and 10 mM EDTA (pH 7.4) and centrifuged at 20.000 rpm for 15 min. The resulting pellet was resuspended, homogenized and centrifuged (20.000 rpm, 15 min) in a buffer containing 20 mM Na-HEPES and 0.1 mM EDTA (pH 7.4, buffer 2). The resulting pellet was resuspended in buffer 2 and protein concentration was measured (BCA protein Assay, Pierce). The homogenate was kept cold during the whole procedure. The membranes were kept at −80° C. until use. Assay was performed in a 384 well Optiplate (PerkinElmer) in a total volume of 40 ul. Membranes were mixed with SPA beads.

Ratio rCT/rAmylin binding [1]	IC50 [2]	IC50 [3]	Ratio hCT/hAmylin binding [4]	Binder
280	2.52 nM	707 nM	23.5	B1
40.3	1.17 nM	47 nM	59.4	B2
